Data set [1] concerns c-Abl (mouse). Nature of the data set: phosphorylation enrichment, bacterial display (enrichment ratio); higher = better substrate or ligand; peptides without Tyr show the background.
The test system of data set [2] is c-Src. The description is as above.
The target of data set [3] is Jak2 (UniProt O60674). The data set is described as above.
The target of data set [4] is Fyn (UniProt P06241). The description is as above.
The target in data set [5] is Hck (UniProt P08631). The data set is described as above.
The test system of data set [6] is AncSZ. Described as above.
For data set [7], the target named is EPHB1 (UniProt P54762). The data set is described as above.
Data set [8] has as its target Fes (UniProt P07332). Described as above.
Data set [9] deals with FGFR1 (UniProt P11362). The description is as above.
Chain of FGFR1 (P11362 whole entry, looked up): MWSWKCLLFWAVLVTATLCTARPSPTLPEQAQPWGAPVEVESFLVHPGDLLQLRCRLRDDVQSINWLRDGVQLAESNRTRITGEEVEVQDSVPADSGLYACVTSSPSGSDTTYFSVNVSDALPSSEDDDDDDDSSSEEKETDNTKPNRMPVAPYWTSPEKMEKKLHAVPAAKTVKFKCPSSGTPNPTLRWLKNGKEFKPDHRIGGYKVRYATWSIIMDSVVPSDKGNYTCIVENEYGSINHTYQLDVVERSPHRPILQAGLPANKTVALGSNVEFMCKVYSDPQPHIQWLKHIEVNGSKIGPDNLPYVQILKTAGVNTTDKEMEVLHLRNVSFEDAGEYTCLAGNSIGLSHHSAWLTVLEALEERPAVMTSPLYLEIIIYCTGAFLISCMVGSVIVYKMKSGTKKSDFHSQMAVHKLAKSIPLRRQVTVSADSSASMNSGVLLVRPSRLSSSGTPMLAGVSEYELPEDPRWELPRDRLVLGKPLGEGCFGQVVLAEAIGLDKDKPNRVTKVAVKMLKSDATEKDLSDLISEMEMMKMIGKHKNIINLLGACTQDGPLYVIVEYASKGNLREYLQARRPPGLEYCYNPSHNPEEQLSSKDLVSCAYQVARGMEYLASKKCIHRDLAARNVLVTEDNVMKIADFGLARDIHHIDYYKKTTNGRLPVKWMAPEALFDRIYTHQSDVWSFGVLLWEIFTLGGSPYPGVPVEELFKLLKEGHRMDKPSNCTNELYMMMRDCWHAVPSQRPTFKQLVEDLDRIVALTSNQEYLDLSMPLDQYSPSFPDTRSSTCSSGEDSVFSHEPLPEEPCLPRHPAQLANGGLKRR
In data set [10] the test system is Fer (mouse). The description is as above.
The target of data set [11] is EPHB2 (UniProt P29323). The data set is described as above.
Chain of EPHB2 (P29323 whole entry, looked up): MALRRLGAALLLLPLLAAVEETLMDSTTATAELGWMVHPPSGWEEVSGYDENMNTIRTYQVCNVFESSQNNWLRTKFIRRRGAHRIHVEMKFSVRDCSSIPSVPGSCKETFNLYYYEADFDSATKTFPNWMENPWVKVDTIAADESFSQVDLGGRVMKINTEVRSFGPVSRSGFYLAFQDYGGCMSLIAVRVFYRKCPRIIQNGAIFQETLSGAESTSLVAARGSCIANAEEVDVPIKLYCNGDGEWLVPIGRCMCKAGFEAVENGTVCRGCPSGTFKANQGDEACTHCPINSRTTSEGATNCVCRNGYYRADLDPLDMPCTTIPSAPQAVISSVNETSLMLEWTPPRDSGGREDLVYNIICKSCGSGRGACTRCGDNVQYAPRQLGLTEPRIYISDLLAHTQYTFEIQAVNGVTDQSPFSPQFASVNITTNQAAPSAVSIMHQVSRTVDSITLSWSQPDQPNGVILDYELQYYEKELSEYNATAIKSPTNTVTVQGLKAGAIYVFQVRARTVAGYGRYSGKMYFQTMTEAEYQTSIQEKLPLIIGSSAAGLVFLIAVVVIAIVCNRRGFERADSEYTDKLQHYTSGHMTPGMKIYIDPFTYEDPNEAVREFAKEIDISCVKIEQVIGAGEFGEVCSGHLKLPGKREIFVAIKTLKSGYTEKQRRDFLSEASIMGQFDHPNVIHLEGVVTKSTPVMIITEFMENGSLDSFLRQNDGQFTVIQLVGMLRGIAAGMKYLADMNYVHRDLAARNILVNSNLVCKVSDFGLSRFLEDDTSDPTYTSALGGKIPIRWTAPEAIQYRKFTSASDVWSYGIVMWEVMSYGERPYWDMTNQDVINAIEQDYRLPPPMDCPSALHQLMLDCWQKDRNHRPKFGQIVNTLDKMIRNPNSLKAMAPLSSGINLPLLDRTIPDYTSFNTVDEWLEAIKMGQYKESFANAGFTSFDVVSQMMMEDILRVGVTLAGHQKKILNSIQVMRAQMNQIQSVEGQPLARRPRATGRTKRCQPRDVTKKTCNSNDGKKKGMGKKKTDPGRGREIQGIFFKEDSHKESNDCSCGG
Data set [12] concerns the target MERTK (UniProt Q12866). Described as above.
In data set [13] the target is FGFR3 (UniProt P22607). The description is as above.
Data set [14] concerns the target SHP2-C SH2. Nature of the data set: SH2 binding enrichment of the phosphorylated peptide, bacterial display (enrichment ratio); higher = better substrate or ligand; peptides without Tyr show the background.
The target of data set [15] is c-Src SH2. Described as above.
The target in data set [16] is Grb2 SH2 (UniProt P62993). The description is as above.
Chain of Grb2 SH2 (P62993 whole entry, looked up, the tested form may be a part): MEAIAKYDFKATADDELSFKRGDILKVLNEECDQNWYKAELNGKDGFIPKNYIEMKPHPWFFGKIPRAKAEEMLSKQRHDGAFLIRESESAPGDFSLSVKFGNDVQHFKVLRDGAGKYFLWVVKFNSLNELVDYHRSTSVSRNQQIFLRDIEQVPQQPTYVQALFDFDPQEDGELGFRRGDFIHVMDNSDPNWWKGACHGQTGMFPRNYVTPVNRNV
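Throughout, for SH2 binding enrichment of the phosphorylated peptide, bacterial display: peptide library displayed on the E. coli surface as eCPX fusions, selected cells deep-sequenced, score is each peptide's frequency after selection divided by its frequency in the input.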
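Throughout, for phosphorylation enrichment, bacterial display: 11-residue human phosphosite peptides and single-mutation variants displayed on the E. coli surface, counted by deep sequencing, each peptide's frequency after selection divided by its frequency in the unselected input library; frequency after pTyr selection over input frequency; kinase dosed for 20-30% of maximal phosphorylation in three min.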

Chain of MERTK (Q12866 whole entry, looked up): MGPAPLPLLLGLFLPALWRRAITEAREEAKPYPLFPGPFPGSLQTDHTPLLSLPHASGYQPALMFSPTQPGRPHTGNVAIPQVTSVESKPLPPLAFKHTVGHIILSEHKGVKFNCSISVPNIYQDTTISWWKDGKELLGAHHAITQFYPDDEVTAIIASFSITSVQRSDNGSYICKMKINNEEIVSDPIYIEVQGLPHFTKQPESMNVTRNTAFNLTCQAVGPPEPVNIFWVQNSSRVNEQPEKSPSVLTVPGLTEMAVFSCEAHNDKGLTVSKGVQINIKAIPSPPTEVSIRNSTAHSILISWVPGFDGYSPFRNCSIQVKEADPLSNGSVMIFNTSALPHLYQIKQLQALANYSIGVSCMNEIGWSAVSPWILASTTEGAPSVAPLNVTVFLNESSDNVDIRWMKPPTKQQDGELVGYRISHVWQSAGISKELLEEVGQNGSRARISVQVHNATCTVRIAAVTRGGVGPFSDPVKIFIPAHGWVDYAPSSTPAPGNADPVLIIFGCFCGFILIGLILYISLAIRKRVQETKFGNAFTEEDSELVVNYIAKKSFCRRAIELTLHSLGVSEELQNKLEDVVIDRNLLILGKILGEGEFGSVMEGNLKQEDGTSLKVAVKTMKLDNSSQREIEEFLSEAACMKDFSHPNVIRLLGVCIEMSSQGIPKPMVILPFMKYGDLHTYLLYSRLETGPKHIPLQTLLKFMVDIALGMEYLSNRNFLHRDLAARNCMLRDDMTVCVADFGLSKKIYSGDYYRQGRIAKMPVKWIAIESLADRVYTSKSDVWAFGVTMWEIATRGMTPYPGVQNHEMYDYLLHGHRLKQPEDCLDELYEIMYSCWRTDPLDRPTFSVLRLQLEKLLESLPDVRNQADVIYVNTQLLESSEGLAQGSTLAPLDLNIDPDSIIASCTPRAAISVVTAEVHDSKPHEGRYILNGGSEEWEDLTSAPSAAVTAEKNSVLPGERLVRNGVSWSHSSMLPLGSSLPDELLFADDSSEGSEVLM
Chain of Fyn (P06241 whole entry, looked up): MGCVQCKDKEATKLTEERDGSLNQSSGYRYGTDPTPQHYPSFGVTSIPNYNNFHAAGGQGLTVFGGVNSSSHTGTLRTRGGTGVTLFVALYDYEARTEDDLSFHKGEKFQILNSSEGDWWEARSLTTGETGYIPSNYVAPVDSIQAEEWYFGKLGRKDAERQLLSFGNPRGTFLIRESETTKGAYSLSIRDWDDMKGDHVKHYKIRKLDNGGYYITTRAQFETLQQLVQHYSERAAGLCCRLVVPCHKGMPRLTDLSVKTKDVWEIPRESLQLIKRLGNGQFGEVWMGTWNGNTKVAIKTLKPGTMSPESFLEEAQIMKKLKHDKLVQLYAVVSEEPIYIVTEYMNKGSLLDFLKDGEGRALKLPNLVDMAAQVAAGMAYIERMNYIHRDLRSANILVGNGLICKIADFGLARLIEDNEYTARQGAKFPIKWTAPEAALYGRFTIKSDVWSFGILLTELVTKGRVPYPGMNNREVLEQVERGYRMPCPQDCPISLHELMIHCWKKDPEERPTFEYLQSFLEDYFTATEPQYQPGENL
Chain of Jak2 (O60674 whole entry, looked up): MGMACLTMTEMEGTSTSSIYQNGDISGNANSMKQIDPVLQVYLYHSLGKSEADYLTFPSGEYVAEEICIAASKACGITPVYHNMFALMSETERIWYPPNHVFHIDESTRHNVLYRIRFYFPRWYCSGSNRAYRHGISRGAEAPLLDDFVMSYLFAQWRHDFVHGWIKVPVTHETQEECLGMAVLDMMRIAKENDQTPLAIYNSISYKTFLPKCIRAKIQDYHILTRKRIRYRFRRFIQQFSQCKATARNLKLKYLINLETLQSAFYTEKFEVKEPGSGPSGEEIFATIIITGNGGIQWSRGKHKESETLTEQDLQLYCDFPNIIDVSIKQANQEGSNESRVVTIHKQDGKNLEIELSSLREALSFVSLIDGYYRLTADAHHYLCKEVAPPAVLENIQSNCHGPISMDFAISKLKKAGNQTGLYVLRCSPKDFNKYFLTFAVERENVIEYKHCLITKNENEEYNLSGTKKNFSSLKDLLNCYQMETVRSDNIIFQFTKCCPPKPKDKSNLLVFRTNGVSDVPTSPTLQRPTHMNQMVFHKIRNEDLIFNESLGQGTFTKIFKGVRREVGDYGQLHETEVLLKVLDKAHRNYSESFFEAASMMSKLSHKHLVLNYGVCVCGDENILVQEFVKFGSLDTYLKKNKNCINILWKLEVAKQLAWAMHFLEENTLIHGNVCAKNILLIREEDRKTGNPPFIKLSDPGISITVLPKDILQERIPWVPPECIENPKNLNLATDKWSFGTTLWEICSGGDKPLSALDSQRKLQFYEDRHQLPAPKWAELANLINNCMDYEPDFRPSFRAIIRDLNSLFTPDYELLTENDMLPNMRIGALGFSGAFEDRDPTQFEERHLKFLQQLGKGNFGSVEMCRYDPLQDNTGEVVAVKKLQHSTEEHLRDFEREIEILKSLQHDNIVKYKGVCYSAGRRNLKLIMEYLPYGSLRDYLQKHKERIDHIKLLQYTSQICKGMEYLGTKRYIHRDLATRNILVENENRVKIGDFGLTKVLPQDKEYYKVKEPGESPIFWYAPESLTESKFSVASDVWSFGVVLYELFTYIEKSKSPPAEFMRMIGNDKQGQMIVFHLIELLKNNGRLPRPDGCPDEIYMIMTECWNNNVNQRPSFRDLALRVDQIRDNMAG

As to QFQLKYSETPF [SIX6OS1_Y129_YF], the phosphorylation enrichment in data set [1] came out at 1.39; in data set [2] it was 0.812; in data set [3], 2.17; in data set [4] it was 0.811; in [5], 0.855; in [6], 1.7. In addition, the phosphorylation enrichment in data set [7] came out at 0.957; in [8], 1.84; in [9] it was 0.982; in data set [10] it was 0.789; in data set [11], 1.12; in [12], 1.24. Also, in [13], the phosphorylation enrichment turned out to be 1.11. Further, the figures for the SH2 binding enrichment in data set [14], in data set [15] and in data set [16] were 1.37, 0.625 and 1.01, respectively.

Consider QGCGIYKDFFR [PLA2G2D_Y82_S80G_YF], for which the phosphorylation enrichment in data set [1] came to 1.26; in [2] it was 6.23; in [3], 1.17; in [4], 5.88; in data set [5], 3.89; in data set [6] it was 1.08. The phosphorylation enrichment in [7] is 0.548; in data set [8], 1.49; in data set [9], 0.7; in [10], 0.76; in data set [11], 0.852; in data set [12] it was 0.534. For the same sequence, the phosphorylation enrichment in data set [13] was determined as 0.885. Besides, the SH2 binding enrichment in [14] is 1.38; in data set [15] it was 0.753; in data set [16], 1.03.

Take QGQHWYSSSDK [CASP10_Y9]: the phosphorylation enrichment stood at 0.697 in data set [1]; 0.552 in [2]; 0.645 in [3]; 0.671 in [4]; 0.754 in data set [5]; 0.826 in data set [6]. Also, the phosphorylation enrichment in [7] was 0.766; in [8] it was 1.17; in data set [9] it was 0.665; in [10], 0.579; in data set [11], 0.596; in data set [12] it was 0.573. Also, the phosphorylation enrichment in data set [13] is 0.6. Further, the results for the SH2 binding enrichment in [14], in [15] and in data set [16] were 0.829, 1.21 and 0.905, respectively.

In the case of QGQHWYSSSDT [CASP10_Y9_K14T], the phosphorylation enrichment in data set [1] turned out to be 1.06; in data set [2], 0.982; in data set [3], 1.99; in data set [4], 0.672; in data set [5], 0.573; in data set [6] it was 1.09. In addition, the phosphorylation enrichment amounted to 0.859 in data set [7]; 1.39 in [8]; 0.657 in [9]; 0.755 in data set [10]; 0.929 in data set [11]; 0.811 in data set [12]. Besides, the phosphorylation enrichment in data set [13] is 0.901. The SH2 binding enrichment in [14] came to 0.83; in [15], 1.53; in data set [16], 0.827.

With QKFMAYPSQGG [HLCS_Y236_L237P], the phosphorylation enrichment in [1] is 1.12; in data set [2], 0.779; in [3], 1.2; in [4], 0.388; in [5] it was 0.537; in data set [6], 0.625. The phosphorylation enrichment in data set [7] came to 0.388; in [8], 0.886; in data set [9], 0.512; in [10], 0.654; in data set [11], 0.525; in [12], 0.613. In addition, in [13], the phosphorylation enrichment was determined as 0.484. The SH2 binding enrichment is 0.654 in [14], 0.477 in [15] and 0.941 in data set [16].

With QLDQHYLLVPE [DDX49_Y223_R222H], the phosphorylation enrichment in data set [1] was 0.642; in data set [2], 0.654; in data set [3], 1.14; in data set [4], 0.955; in [5], 0.893; in data set [6], 1.16. Moreover, the phosphorylation enrichment in data set [7] came to 1.21; in data set [8] it was 1.1; in data set [9], 1.6; in data set [10], 0.643; in data set [11], 1.09; in data set [12] it was 0.825. The phosphorylation enrichment in [13] was found to be 2.09. Further, the SH2 binding enrichment in data set [14] is 0.436; in [15], 0.604; in [16], 0.815.

On to QMEKICTQQIQ [CCNB1IP1_Y125_Y125C], for which the phosphorylation enrichment turned out to be 0.986 in data set [1]; 0.573 in data set [2]; 1.24 in data set [3]; 0.486 in data set [4]; 0.409 in data set [5]; 1.36 in [6]. Also, the phosphorylation enrichment in data set [7] came out at 0.707; in data set [8], 1.64; in data set [9] it was 1; in data set [10] it was 0.537; in data set [11], 0.647; in [12] it was 0.461. Besides, in data set [13], the phosphorylation enrichment stood at 0.948. Further, the SH2 binding enrichment in data set [14] is 0.558; in data set [15], 0.486; in [16], 0.834.

Take QMVDMYASSYM [AVPR2_Y124_G122D]: the phosphorylation enrichment in data set [1] worked out at 0.891; in data set [2], 1.29; in data set [3] it was 0.905; in data set [4], 0.876; in data set [5], 1.58; in [6] it was 1.22. Moreover, the phosphorylation enrichment in data set [7] worked out at 0.558; in [8], 1.43; in data set [9], 0.579; in data set [10] it was 0.631; in data set [11] it was 0.571; in [12], 0.842. Besides, in data set [13], the phosphorylation enrichment turned out to be 0.815. Also, the SH2 binding enrichment in [14] was 0.602; in data set [15], 1.33; in data set [16], 0.742.

Values taken from the supplement of paper PMC10065799, “High-throughput profiling of sequence recognition by tyrosine kinases and SH2 domains using bacterial peptide display” (eLife, 2023).
